In US20230265179A1 (TWIST BIOSCIENCE, published 2023):
Positions count from the first letter of the chain named.

B1: IL1RL2-4 (VHH)
VHH: EVQLVESGGGLVQPGGSLRLSCAASGFILREYNMGWFRQAPGKEREFVAAISPSAFTEYADSVKGRFTISADNSKNTAYLQMNSLKPEDTAVYYCAAANEYWVYVNPNRYTWGQGTLVTVSS
notes: VHH-Fc based on IgG2 Fc
B2: IL1RL2-54 (VHH)
VHH: B1 VHH with F27R, I28Y, L29F, R30S, E31D
notes: VHH-Fc based on IgG2 Fc
B3: IL1RL1-78 (Fc fusion, not shown: a dimerising Fc or GST)
VHH: EVQLVESGGGLVQPGGSLRLSCAASGFTLDDYAMGWFRQAPGKEREEVAAISWIIGSTKYADSVKGRFTISADNSKNTAYLQMNSLKPEDTAVYYCAAIVYEEGVYRWDWGQGTLVTVSS
notes: VHH-Fc on IgG2 Fc
B4: IL1RL2-10 (VHH)
VHH: EVQLVESGGGLVQPGGSLRLSCAASGFTFSNHIMGWFRQAPGKEREWVSGINRDGSTSYADSVKGRFTISADNSKNTAYLQMNSLKPEDTAVYYCAKARQITGWDFDYWGQGTLVTVSS
notes: VHH-Fc based on IgG2 Fc
B5: IL1RL2-55 (VHH)
VHH: EVQLVESGGGLVQPGGSLRLSCAASGYTDSNLWMGWFRQAPGKEREFVASIDWSGRSTYYADSVKGRFTISADNSKNTAYLQMNSLKPEDTAVYYCAANGIESYGWGNRHFNWGQGTLVTVSS
notes: VHH-Fc based on IgG2 Fc
B6: IL1RL2-19 (VHH)
VHH: B5 VHH with I51V, D52N, R56K, S57D
notes: VHH-Fc based on IgG2 Fc
B7: IL1RL2-13 (VHH)
VHH: B5 VHH with A49G, S54I, G55P, R56S, S57N, T58I
notes: VHH-Fc based on IgG2 Fc
B8: IL1RL2-3 (VHH)
VHH: EVQLVESGGGLVQPGGSLRLSCAASGRTVSTMGWFRQAPGKEREWVSTITFNGDHTYYADSVKGRFTISADNSKNTAYLQMNSLKPEDTAVYYCAKAYSSSWPYFDYWGQGTLVTVSS
notes: VHH-Fc based on IgG2 Fc
B9: IL1RL2-21 (VHH)
VHH: EVQLVESGGGLVQPGGSLRLSCAASGRTFSRYAMGWFRQAPGKEREFVAAINWSGDRTYYADSVKGRFTISADNSKNTAYLQMNSLKPEDTAVYYCAVSQPLNYYTYYDARRYDWGQGTLVTVSS
notes: VHH-Fc based on IgG2 Fc
B10: IL1RL2-36 (VHH)
VHH: B9 VHH with F29Y, S30N, R31S, A33S, N52S, D56E, R57H
notes: VHH-Fc based on IgG2 Fc
B11: IL1RL2-37 (VHH)
VHH: B9 VHH with R27G, T28A, R31T, Y32V, N52S, G55R, D56G, Y59F
notes: VHH-Fc based on IgG2 Fc
B12: IL1RL2-41 (VHH)
VHH: B9 VHH with R27G, I51V, D56A
notes: VHH-Fc based on IgG2 Fc
B13: IL1RL2-43 (VHH)
VHH: B9 VHH with R27G, N52S, D56A, R57N
notes: VHH-Fc based on IgG2 Fc
B14: IL1RL1-63 (Fc fusion, not shown: a dimerising Fc or GST)
VHH: EVQLVESGGGLVQPGGSLRLSCAASGRTLSSIYAMGWFRQAPGKEREGVAAIYSGGITTYADSVKGRFTISADNSKNTAYLQMNSLKPEDTAVYYCAAFDGYSGSDWGQGTLVTVSS
B15: IL1RL1-54 (Fc fusion, not shown: a dimerising Fc or GST)
VHH: EVQLVESGGGLVQPGGSLRLSCAASGNIPPINAMGWFRQAPGKEREWVASISTSGSTITPYADSVKGRFTISADNSKNTAYLQMNSLKPEDTAVYYCAARSGWSGQYDWGQGTLVTVSS
notes: VHH-Fc on IgG2 Fc
B16: IL1RL1-88 (Fc fusion, not shown: a dimerising Fc or GST)
VHH: EVQLVESGGGLVQPGGSLRLSCAASGRTSHGYGGYGMGWFRQAPGKEREEVAAISSSGSSTVYADSVKGRFTISADNSKNTAYLQMNSLKPEDTAVYYCAAIAYEEGVYRWDWGQGTLVTVSS
notes: VHH-Fc on IgG2 Fc
B17: IL1RL1-91 (Fc fusion, not shown: a dimerising Fc or GST)
VHH: EVQLVESGGGLVQPGGSLRLSCAASGGTFGSYAMGWFRQAPGKEREGVAAIYTGGITTYADSVKGRFTISADNSKNTAYLQMNSLKPEDTAVYYCAAFDGYSGSDWGQGTLVTVSS
B18: IL1RL1-89 (Fc fusion, not shown: a dimerising Fc or GST)
VHH: EVQLVESGGGLVQPGGSLRLSCAASGSIYSLVAMGWFRQAPGKEREAVAGIVSGGSTSYADSVKGRFTISADNSKNTAYLQMNSLKPEDTAVYYCAAVGGATTVTASEWDWGQGTLVTVSS
notes: VHH-Fc on IgG2 Fc
B19: IL1RL2-16 (VHH)
VHH: EVQLVESGGGLVQPGGSLRLSCAASGSDFSIKAMGWFRQAPGKEREFVADIYTSTTTNYTNYADSVKGRFTISADNSKNTAYLQMNSLKPEDTAVYYCAAIAYEEGVYRWDWGQGTLVTVSS
notes: VHH-Fc based on IgG2 Fc
B20: IL1RL2-32 (VHH)
VHH: B19 VHH with S27N, Y103H
notes: VHH-Fc based on IgG2 Fc
B21: IL1RL1-73 (Fc fusion, not shown: a dimerising Fc or GST)
VHH: EVQLVESGGGLVQPGGSLRLSCAASGDISSIVAMGWFRQAPGKEREWVSSIGIAGTPTFYADSVKGRFTISADNSKNTAYLQMNSLKPEDTAVYYCAGRSIGVDDMPYVWGQGTLVTVSS
notes: VHH-Fc on IgG2 Fc
B22: IL1RL1-57 (Fc fusion, not shown: a dimerising Fc or GST)
VHH: EVQLVESGGGLVQPGGSLRLSCAASGDIGSINSMGWFRQAPGKEREFLASVSWGFGSTYYADSVKGRFTISADNSKNTAYLQMNSLKPEDTAVYYCAVNRLLYYSSGYYQTSVDWGQGTLVTVSS
notes: VHH-Fc on IgG2 Fc
B23: IL1RL2-14 (VHH)
VHH: EVQLVESGGGLVQPGGSLRLSCAASGFTFSNYWMGWFRQAPGKEREFVATIPWSGAYTEYADSVKGRFTISADNSKNTAYLQMNSLKPEDTAVYYCAAANEYWVYVNPNRYTWGQGTLVTVSS
notes: VHH-Fc based on IgG2 Fc
B24: IL1RL2-25 (VHH)
VHH: B23 VHH with F27L, T28P, S30N, Y32V, W33Y, T50A, I51V, P52T
notes: VHH-Fc based on IgG2 Fc
B25: IL1RL2-8 (VHH)
VHH: B23 VHH with F29Y, N31S, Y32N, W33Y, T50G, P52S, S54T, G55D
notes: VHH-Fc based on IgG2 Fc
B26: IL1RL2-39 (VHH)
VHH: B23 VHH with F27R, T28A, N31S, Y32T, W33V, T50G, P52G, S54T, G55D
notes: VHH-Fc based on IgG2 Fc
B27: IL1RL2-49 (VHH)
VHH: B23 VHH with N31T, S54I, Y57H, A98E, V104G, Q115P, S123H
notes: VHH-Fc based on IgG2 Fc

Assays:
[1] = target: T1, IL1RL2 over-expressed on Expi293 cells (UniProt Q9HB29 20-575, limits assumed); assay: flow cytometry, over-expressing Expi293 vs parent cells, 100 nM antibody;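 note: ratio is mean fluorescence intensity on over-expressing Expi293 cells divided by that measured on parental Expi293 cells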
T1 construct: whole, on cells; Target of the flow cytometry assay; MFI ratio is over-expressing cells over parent cells
T1 sequence (looked up): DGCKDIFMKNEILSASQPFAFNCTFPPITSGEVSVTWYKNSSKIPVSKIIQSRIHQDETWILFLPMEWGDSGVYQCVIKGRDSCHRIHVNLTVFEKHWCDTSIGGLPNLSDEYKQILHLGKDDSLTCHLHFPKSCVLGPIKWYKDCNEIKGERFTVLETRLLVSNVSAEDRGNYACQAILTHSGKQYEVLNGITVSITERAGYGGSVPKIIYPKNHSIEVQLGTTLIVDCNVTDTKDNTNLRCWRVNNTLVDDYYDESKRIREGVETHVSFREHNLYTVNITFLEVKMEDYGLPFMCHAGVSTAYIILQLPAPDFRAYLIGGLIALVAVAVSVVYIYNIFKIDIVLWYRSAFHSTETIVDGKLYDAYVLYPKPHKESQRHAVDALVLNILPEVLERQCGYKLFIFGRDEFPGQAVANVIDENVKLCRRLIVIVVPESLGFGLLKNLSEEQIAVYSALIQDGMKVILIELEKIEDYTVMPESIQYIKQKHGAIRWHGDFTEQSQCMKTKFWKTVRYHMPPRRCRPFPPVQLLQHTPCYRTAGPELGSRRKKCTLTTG
Method: (§1) All incubations and washes were in buffer containing PBS+1% BSA. MFI Ratio is defined by the mean fluorescence intensity (MFI) of the cytokine over-expressing Expi293 cell over the Expi293 parent cell. […] EC50 was calculated in GraphPad Prism.

IL1RL1 = target: T2, IL1RL1 (UniProt Q01638 19-328, limits assumed); assay: SPR (Carterra LSA), antibody amine-coupled, 1:1 model;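 note: HC30M sensor chip at 25 °C in HBS-TE, analyte at rising concentrations in buffer containing 0.5 mg/mL BSA, 5 min association then 15 min dissociation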
T2 construct: SPR analyte
T2 sequence (looked up): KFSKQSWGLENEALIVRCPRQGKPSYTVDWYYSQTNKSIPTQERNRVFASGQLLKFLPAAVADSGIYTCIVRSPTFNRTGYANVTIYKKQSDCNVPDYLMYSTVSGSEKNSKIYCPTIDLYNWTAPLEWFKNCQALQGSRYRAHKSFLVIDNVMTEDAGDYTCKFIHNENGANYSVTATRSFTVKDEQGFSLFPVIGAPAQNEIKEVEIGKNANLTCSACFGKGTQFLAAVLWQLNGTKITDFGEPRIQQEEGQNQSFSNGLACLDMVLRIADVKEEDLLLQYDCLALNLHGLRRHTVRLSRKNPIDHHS
Method: SPR experiments were performed on a Carterra LSA SPR biosensor equipped with a HC30M chip at 25° C. in HBS-TE. Antibodies were diluted to 10 μg/mL and amine-coupled to the sensor chip by EDC/NHS activation, followed by ethanolamine HCl quenching. Increasing concentrations of analyte were flowed over the sensor chip in HBS-TE with 0.5 mg/mL BSA with 5-minute association and 15-minute dissociation. Following each injection cycle the surface was regenerated with 2× 30-second injections of IgG elution buffer (Thermo). Data were analyzed in Carterra's Kinetics Tool software with 1:1 binding model.

[2] = target: T3, IL1RL1 over-expressed on Expi293 cells (UniProt Q01638 19-556, limits assumed); assay: flow cytometry, 100 nM antibody, over-expressing Expi293 / parent cells
T3 construct: whole, on cells; Target of the flow cytometry MFI ratio (over-expressing cells over parent cells); also called cytokine over-expressing Expi293 cells
T3 sequence (looked up): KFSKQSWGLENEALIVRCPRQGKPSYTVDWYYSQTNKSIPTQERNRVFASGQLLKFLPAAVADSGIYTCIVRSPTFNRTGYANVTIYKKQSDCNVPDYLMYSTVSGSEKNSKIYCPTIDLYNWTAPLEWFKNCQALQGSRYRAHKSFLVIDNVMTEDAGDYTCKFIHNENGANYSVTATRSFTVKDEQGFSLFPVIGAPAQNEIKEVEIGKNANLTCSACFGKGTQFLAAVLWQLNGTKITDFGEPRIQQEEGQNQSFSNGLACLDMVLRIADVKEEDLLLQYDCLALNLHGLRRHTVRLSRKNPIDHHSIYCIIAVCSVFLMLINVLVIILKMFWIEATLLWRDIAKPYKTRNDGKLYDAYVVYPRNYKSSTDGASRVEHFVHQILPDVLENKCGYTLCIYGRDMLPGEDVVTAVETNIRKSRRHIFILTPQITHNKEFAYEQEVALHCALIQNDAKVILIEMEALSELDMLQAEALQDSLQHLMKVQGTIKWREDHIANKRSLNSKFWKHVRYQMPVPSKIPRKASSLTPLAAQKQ
Method: as §1

Binder | 100 nM FACS (MFI Ratio) [1] | Kd (IL1RL1) [nM] | koff (IL1RL1) [s⁻¹] | kon (IL1RL1) [M⁻¹ s⁻¹] | 100 nM FACS (MFI Ratio) [2] [MFI ratio]
B1 | 15.7 |  |  |  | 
B2 | 21.1 |  |  |  | 
B3 |  | 1.36 | 0.000278 | 204000 | 475
B4 | 12.7 |  |  |  | 
B5 | 49.7 |  |  |  | 
B6 | 13.8 |  |  |  | 
B7 | 11.3 |  |  |  | 
B8 | 1.97 |  |  |  | 
B9 | 20.9 |  |  |  | 
B10 | 14 |  |  |  | 
B11 | 16.9 |  |  |  | 
B12 | 5.33 |  |  |  | 
B13 | 1.62 |  |  |  | 
B14 |  | 0.153 | 3.16e-05 | 207000 | 451
B15 |  | 0.516 | 9.06e-05 | 176000 | 500
B16 |  | 0.529 | 0.000104 | 197000 | 339
B17 |  | 1.85 | 0.000261 | 141000 | 475
B18 |  | 0.781 | 0.000388 | 496000 | 340
B19 | 37.6 |  |  |  | 
B20 | 20.1 |  |  |  | 
B21 |  | 2.06 | 0.000362 | 176000 | 463
B22 |  | 1.73 | 0.000364 | 211000 | 282
B23 | 42.1 |  |  |  | 
B24 | 16.5 |  |  |  | 
B25 | 12.8 |  |  |  | 
B26 | 15.3 |  |  |  | 
B27 | 190 |  |  |  | 
